T1: PDZD7_3, Q9H5P4
T1 sequence (Q9H5P4 857-944, limits assumed, looked up): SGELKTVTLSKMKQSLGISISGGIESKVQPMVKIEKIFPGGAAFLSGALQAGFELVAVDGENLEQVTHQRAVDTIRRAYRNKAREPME

T2: CARD11, Q9BXL7
T2 sequence (Q9BXL7 662-765, limits assumed, looked up): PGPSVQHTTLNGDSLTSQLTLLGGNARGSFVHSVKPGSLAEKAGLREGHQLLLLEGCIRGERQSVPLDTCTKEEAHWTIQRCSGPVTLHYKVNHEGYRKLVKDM

T3: MPP7, Q5T2T1
T3 sequence (Q5T2T1 134-230, limits assumed, looked up): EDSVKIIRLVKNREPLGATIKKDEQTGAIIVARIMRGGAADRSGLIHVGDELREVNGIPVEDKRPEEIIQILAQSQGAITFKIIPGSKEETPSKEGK

T4: GRIP1_3, Q9Y3R0
T4 sequence (Q9Y3R0 247-346, limits assumed, looked up): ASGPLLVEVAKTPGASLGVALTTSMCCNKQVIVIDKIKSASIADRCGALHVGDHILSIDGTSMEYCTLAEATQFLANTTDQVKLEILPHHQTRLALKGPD

T5: SNTG2, Q9NY99
T5 sequence (Q9NY99 68-166, limits assumed, looked up): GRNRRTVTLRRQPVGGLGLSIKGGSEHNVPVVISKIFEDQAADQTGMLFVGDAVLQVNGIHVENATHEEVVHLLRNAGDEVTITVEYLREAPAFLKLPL

T6: LIN7A, O14910
T6 sequence (O14910 103-200, limits assumed, looked up): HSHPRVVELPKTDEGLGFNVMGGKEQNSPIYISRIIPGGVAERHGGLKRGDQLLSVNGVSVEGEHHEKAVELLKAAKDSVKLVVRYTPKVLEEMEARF

T7: GRIP1_7, Q9Y3R0
T7 sequence (Q9Y3R0 999-1096, limits assumed, looked up): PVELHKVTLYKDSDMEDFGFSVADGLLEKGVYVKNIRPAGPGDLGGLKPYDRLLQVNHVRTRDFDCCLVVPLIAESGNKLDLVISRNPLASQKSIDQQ

T8: GRIP1_4, Q9Y3R0
T8 sequence (Q9Y3R0 467-571, limits assumed, looked up): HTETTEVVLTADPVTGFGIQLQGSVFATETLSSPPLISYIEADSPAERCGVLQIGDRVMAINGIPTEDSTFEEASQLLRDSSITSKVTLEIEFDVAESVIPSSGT

T9: DVL3, Q92997
T9 sequence (Q92997 244-331, limits assumed, looked up): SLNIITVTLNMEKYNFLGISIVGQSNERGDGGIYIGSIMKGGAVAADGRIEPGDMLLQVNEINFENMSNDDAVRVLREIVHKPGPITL

T10: SYNJ2BP, P57105
T10 sequence (P57105 8-110, limits assumed, looked up): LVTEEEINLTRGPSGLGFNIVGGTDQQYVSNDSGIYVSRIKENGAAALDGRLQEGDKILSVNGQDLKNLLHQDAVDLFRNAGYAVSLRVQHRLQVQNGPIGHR


Assays:
Test in all cases: holdup assay
Design in all cases: key: below the threshold = too weak to quantify, mostly under pKd 3.1 to 4
Settings in all cases: plain residues with an end cap or a label only (N-terminal biotin on a linker: ado-ado)
[1] = molecular target: T1, PDZD7_3, Q9H5P4
[2] = molecular target: T2, CARD11, Q9BXL7
[3] = molecular target: T3, MPP7, Q5T2T1
[4] = molecular target: T4, GRIP1_3, Q9Y3R0
[5] = molecular target: DLG4_3, P78352
Sequence of DLG4_3, P78352 (P78352 306-403): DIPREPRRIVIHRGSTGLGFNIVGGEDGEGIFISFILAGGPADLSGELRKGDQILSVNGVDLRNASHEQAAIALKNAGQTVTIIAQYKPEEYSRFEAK

[6] = molecular target: GRIP2_7, Q9C0E4
Sequence of GRIP2_7, Q9C0E4 (Q9C0E4 934-1023): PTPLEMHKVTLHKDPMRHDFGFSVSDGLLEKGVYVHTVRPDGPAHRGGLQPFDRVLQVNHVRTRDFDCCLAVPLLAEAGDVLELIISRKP

[7] = molecular target: DLG4_2, P78352
Sequence of DLG4_2, P78352 (P78352 155-259): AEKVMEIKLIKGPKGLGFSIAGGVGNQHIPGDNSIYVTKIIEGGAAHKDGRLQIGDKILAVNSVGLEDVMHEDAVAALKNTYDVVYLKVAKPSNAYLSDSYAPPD

[8] = molecular target: NHERF4_2, Q86UT5
Sequence of NHERF4_2, Q86UT5 (Q86UT5 220-308): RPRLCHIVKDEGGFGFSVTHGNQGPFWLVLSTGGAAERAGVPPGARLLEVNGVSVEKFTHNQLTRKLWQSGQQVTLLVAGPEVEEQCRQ

[9] = molecular target: GRID2IP_2, A4D2P6
Sequence of GRID2IP_2, A4D2P6 (A4D2P6 272-370): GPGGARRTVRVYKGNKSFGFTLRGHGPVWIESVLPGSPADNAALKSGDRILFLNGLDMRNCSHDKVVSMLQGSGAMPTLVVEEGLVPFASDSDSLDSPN

[10] = molecular target: IL16_1, Q14005
Sequence of IL16_1, Q14005 (Q14005 210-306): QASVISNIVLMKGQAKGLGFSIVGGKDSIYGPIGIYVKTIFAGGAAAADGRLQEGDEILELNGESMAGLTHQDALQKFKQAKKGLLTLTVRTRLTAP

[11] = molecular target: DLG1_2, Q12959
Sequence of DLG1_2, Q12959 (Q12959 314-412): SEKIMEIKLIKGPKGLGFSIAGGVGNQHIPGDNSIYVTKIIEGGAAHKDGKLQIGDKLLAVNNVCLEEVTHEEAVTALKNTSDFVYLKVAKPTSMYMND

[12] = molecular target: T5, SNTG2, Q9NY99
[13] = molecular target: T6, LIN7A, O14910
[14] = molecular target: SNX27, Q96L92
[15] = molecular target: HTRA2, O43464
Sequence of HTRA2, O43464 (O43464 355-458): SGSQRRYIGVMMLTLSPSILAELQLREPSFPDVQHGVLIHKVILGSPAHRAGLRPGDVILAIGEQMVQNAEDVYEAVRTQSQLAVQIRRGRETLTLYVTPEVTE

[16] = molecular target: NHERF4_1, Q86UT5-2
Sequence of NHERF4_1, Q86UT5-2 (Q86UT5 other isoform, or with tags, fused parts or gaps): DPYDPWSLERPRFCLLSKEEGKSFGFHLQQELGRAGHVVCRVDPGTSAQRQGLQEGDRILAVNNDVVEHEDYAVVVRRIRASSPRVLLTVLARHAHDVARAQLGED

[17] = molecular target: MAGI1_2, Q96QZ7
Sequence of MAGI1_2, Q96QZ7 (Q96QZ7 456-580): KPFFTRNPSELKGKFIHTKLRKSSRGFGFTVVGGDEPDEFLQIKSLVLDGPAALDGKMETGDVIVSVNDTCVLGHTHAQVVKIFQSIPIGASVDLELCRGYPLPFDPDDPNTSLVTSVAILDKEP

[18] = molecular target: NHERF4_4, Q86UT5
Sequence of NHERF4_4, Q86UT5 (Q86UT5 464-550): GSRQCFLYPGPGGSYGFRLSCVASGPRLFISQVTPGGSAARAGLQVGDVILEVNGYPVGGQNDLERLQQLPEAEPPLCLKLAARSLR

[19] = molecular target: IL16_3, Q14005
Sequence of IL16_3, Q14005 (Q14005 1107-1207): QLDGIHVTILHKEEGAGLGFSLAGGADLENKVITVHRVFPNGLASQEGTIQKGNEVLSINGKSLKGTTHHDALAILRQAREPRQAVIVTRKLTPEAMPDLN

[20] = molecular target: FRMPD2_1, Q68DX3
Sequence of FRMPD2_1, Q68DX3 (Q68DX3 770-861): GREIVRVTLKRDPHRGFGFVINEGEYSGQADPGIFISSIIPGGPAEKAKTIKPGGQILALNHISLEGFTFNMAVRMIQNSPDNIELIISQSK

[21] = molecular target: T7, GRIP1_7, Q9Y3R0
[22] = molecular target: T8, GRIP1_4, Q9Y3R0
[23] = molecular target: T9, DVL3, Q92997
[24] = molecular target: MAST1, Q9Y2H9
Sequence of MAST1, Q9Y2H9 (Q9Y2H9 962-1065): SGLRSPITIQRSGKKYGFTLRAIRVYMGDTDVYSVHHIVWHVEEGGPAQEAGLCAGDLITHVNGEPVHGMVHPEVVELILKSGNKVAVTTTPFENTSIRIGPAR

[25] = molecular target: T10, SYNJ2BP, P57105
[26] = molecular target: FRMPD2_3, Q68DX3
Sequence of FRMPD2_3, Q68DX3 (Q68DX3 1073-1166): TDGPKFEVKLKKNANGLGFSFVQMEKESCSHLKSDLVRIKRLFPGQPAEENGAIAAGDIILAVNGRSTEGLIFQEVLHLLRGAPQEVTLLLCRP

[27] = molecular target: GRIP2_4, Q9C0E4
Sequence of GRIP2_4, Q9C0E4 (Q9C0E4 446-548): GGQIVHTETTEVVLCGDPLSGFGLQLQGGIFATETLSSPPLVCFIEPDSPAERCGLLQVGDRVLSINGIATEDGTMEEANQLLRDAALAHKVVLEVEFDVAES

[28] = molecular target: Inadl_2, Q8NI35
Sequence of Inadl_2, Q8NI35 (Q8NI35 238-335): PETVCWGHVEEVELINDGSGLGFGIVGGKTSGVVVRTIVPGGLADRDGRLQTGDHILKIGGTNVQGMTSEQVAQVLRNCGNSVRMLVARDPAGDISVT

| Binder | pKd [1] | pKd [2] | pKd [3] | pKd [4] | pKd [5] | pKd [6] | pKd [7] | pKd [8] | pKd [9] | pKd [10] | pKd [11] | pKd [12] | pKd [13] | pKd [14] | pKd [15] | pKd [16] | pKd [17] | pKd [18] | pKd [19] | pKd [20] | further results |
| --- | --- | --- | --- | --- | --- | --- | --- | --- | --- | --- | --- | --- | --- | --- | --- | --- | --- | --- | --- | --- | --- |
| RSSGGDDFWF [KCNV1, Q6PIU1] | 3.92 | below the threshold | 4.45 | below the threshold | below the threshold | 4.59 | below the threshold | below the threshold | below the threshold | below the threshold | 3.67 | below the threshold | below the threshold | 4.15 | below the threshold | below the threshold | below the threshold | 4.43 | below the threshold | below the threshold | pKd [21]: below the threshold; pKd [22]: below the threshold; pKd [23]: 3.64; pKd [24]: 4.01; pKd [25]: below the threshold; pKd [26]: below the threshold; pKd [27]: below the threshold; pKd [28]: 4.28 |
| MHIQEKGFHV [EPHA6, Q9UF33] | below the threshold | below the threshold | below the threshold | below the threshold | below the threshold | 3.93 | below the threshold | below the threshold | below the threshold | below the threshold | below the threshold | below the threshold | below the threshold | below the threshold | below the threshold | below the threshold | below the threshold | below the threshold | below the threshold | below the threshold | pKd [21]: below the threshold; pKd [22]: below the threshold; pKd [23]: below the threshold; pKd [24]: 3.69; pKd [25]: below the threshold; pKd [26]: below the threshold; pKd [27]: below the threshold; pKd [28]: below the threshold |
| VLYPREGTEV [FOXI1, Q12951] | 3.99 | below the threshold | below the threshold | below the threshold | 3.57 | below the threshold | 4.62 | below the threshold | 4.11 | 4 | 4.84 | 3.6 | below the threshold | 4.31 | below the threshold | 3.71 | 3.95 | below the threshold | below the threshold | 3.86 | pKd [21]: below the threshold; pKd [22]: below the threshold; pKd [23]: below the threshold; pKd [24]: 4.74; pKd [25]: 5.23; pKd [26]: below the threshold; pKd [27]: below the threshold; pKd [28]: below the threshold |

Continued, in another order:

| pKd [1] | pKd [2] | pKd [3] | pKd [4] | pKd [5] | pKd [6] | pKd [7] | pKd [8] | pKd [9] | pKd [10] | pKd [11] | pKd [12] | pKd [13] | pKd [14] | pKd [15] | pKd [16] | pKd [17] | pKd [18] | pKd [19] | pKd [20] | Binder | further results |
| --- | --- | --- | --- | --- | --- | --- | --- | --- | --- | --- | --- | --- | --- | --- | --- | --- | --- | --- | --- | --- | --- |
| 4 | below the threshold | below the threshold | below the threshold | below the threshold | below the threshold | 3.63 | below the threshold | 3.68 | below the threshold | below the threshold | below the threshold | below the threshold | 3.68 | below the threshold | 3.66 | below the threshold | below the threshold | below the threshold | below the threshold | GTGYDRKDYV [CLDN3, O15551] | pKd [21]: below the threshold; pKd [22]: below the threshold; pKd [23]: 3.72; pKd [24]: 4.03; pKd [25]: below the threshold; pKd [26]: below the threshold; pKd [27]: 3.53; pKd [28]: below the threshold |
| 4.83 | below the threshold | below the threshold | below the threshold | below the threshold | below the threshold | 4.26 | below the threshold | 4.57 | below the threshold | 4.48 | 4.19 | 3.58 | 4.55 | below the threshold | 3.62 | below the threshold | below the threshold | below the threshold | below the threshold | RDPPAEWTRV [PTPN18, Q99952] | pKd [21]: below the threshold; pKd [22]: below the threshold; pKd [23]: below the threshold; pKd [24]: 4.97; pKd [25]: below the threshold; pKd [26]: below the threshold; pKd [27]: below the threshold; pKd [28]: below the threshold |

Source: PMC9482650, “Quantitative fragmentomics allow affinity mapping of interactomes” (Nature Communications, 2022)
